Changes are numbered by the printed parent chain.
T1: FLAG-SLC3A2 N365D (human, UniProt P08195-1 66-630, N365D)
T1 sequence (looked up): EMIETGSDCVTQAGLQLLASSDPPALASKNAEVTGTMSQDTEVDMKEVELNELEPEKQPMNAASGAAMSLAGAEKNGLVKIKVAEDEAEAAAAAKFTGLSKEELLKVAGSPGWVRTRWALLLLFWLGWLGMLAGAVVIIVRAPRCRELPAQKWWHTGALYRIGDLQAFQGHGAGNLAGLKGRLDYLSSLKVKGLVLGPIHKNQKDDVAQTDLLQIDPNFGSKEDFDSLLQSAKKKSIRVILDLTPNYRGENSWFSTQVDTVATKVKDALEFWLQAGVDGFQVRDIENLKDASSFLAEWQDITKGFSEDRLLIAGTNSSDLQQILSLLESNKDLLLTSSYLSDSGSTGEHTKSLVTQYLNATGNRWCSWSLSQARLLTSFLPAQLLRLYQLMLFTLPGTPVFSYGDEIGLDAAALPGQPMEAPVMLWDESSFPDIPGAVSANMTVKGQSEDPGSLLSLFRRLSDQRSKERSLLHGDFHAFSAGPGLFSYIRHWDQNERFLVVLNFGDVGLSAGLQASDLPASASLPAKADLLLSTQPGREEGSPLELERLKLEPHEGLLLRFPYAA

T2: FLAG-SLC3A2 N381D (human, UniProt P08195-1 66-630, N381D)
T2 sequence (looked up): T1 sequence (looked up) with D300N, N316D

B1: SLC7A5 (natural protein)
chain: not shown
B2: SLC7A11 (xc(-)) (natural protein, human (endogenous in HeLa), UniProt Q9UPY5 1-501, looked up)
chain: MVRKPVVSTISKGGYLQGNVNGRLPSLGNKEPPGQEKVQLKRKVTLLRGVSIIIGTIIGAGIFISPKGVLQNTGSVGMSLTIWTVCGVLSLFGALSYAELGTTIKKSGGHYTYILEVFGPLPAFVRVWVELLIIRPAATAVISLAFGRYILEPFFIQCEIPELAIKLITAVGITVVMVLNSMSVSWSARIQIFLTFCKLTAILIIIVPGVMQLIKGQTQNFKDAFSGRDSSITRLPLAFYYGMYAYAGWFYLNFVTEEVENPEKTIPLAICISMAIVTIGYVLTNVAYFTTINAEELLLSNAVAVTFSERLLGNFSLAVPIFVALSCFGSMNGGVFAVSRLFYVASREGHLPEILSMIHVRKHTPLPAVIVLHPLTMIMLFSGDLDSLLNFLSFARWLFIGLAVAGLIYLRYKCPDMHRPFKVPLFIPALFSFTCLFMVALSLYSDPFSTGIGFVITLTGVPAYYLFIIWDKKPRWFRIMSEKITRTLQIILEVVPEEDKL

Experiments:
[1] = biological target: T1, FLAG-SLC3A2 N365D; assay: affinity purification with mass spectrometry
[2] = biological target: T2, FLAG-SLC3A2 N381D; assay: affinity purification with mass spectrometry

Binder | percent decrease of association against WTseq [1] [%] | percent decrease of association against WTseq [2] [%]
B1 | 44 ± 14 | 44 ± 14
B2 | 67 ± 15 | 67 ± 15
